In the experiment the target is SARS-CoV-2 spike protein receptor binding domain (RBD) (SARS-CoV-2, UniProt P0DTC2 319-539). As to the kind of experiment: ELISA on coated RBD protein. (In general: ELISA stands for enzyme-linked immunosorbent assay.)

B1: C088 (antibody, V domains shown)
VH: QVQLVQSGAEAKKPGASVKVSCKTSGYTFTNYFMHWVRQAPGQGPEWMGIIDSSDGGASYAQKFQGRVTMTRDTSTSTVYMELRSLKFEDTAVYYCARASTSTTSWSDALSLGSWGQGTLVTVSS
VL: QSVLTQPPSVSGAPGQRVTISCTGSSSNIGGGSVVHWYQQLPGTAPKLLIYANSNRPSGVPDRFSGSKSGTSASLAIAGLQAEDEADYYCQSWDNGLSASGVVFGGGTKLTVL
B1: the EC50 (usually the concentration that produces a half-maximal response) turned out to be 2.44 ng/mL.

B2: C083 (antibody, V domains shown)
VH: EVQLVESGGGLVKPGGSLRLSCAASGFTFSSYSMNWVRQAPGKGLEWVSSISSSTSYIYYADSVKGRFTISRDNAKNSLYLQMNSLRAEDTAVYYCARERYGDNWGQGTLVTVSS
VL: QLVLTQSPSASASLGASVKLTCTLSSGHSSYAIAWHQQQPEKGPRYLMSLNSDGSHSKGDGIPDRFSGSSSGAERYLTISSLQSEDEADYYCQTWGPWVFGGGTKLTVL
Regarding B2, the 50% effective concentration (EC50) was found to be 25.1 ng/mL.

B3: C089 (antibody, V domains shown)
VH: QVQLVESGGGVVQPGRSLRLSCAASGFTFRTYAMHWVRQAPGKGLEWVAVILSDGNNKYYADSVKGRFTISRDNSKNTLYLQMNSLRAEDTAIFYCAREQEANYYDISGYYHWGESLGYWGQGTLVTVSS
VL: DIQLTQSPSFLSASVGDRVTITCRASQGISSYLAWYQQKPGKAPKLLIYGASTLQSGVPSRFSGSGSGTEFTLTISSLQPEDFASYYCQKVNSHPPGLTFGGGTKVEIK
The molecule B3 gave an EC50 of 4.69 ng/mL.

B4: C090 (antibody, V domains shown)
VH: QVQLVESGGGVVQPGRSLRLSCAASGFTFRTYAMHWVRQAPGKGLEWVAVILSDGNNKYYADSVKGRFTISRDNSKNTLYLQMNSLRAEDTAIFYCAREQEANYYDISGYYHWGESLGYWGQGTLVTVSS
VL: DIQLTQSPSFLSASVGDRVTITCRASQGISSYLAWYQQKPGKAPKFLIYGASTLQSGVPSRFSGSGSGTEFTLTISSLQPEDFASYYCQKVNSYPPGLTFGGGTKVEIK
Consider B4, for which the EC50 was 6.22 ng/mL.

B5: C518 (antibody, V domains shown)
VH: EVQLVESGGGLIQPGGSLRLSCAASGITVSSNYMSWVRQAPGKGLEWVSVMYAGGSSFYADSVKGRFTISRDNSKNTLYLQMNSLRVEDTAVYYCARDLIALGVDVWGQGTTVTVSS
VL: DIQLTQSPSFLSASVGDRVTITCRASQGISSYLAWYQQKPGKAPKLLIYAASTLQSGVPSRFSGSGSGTEFTLTISSLQPEDFATYYCQLLNSYPMCSFGQGTKLEIK
In the case of B5, the EC50 is 1.13 ng/mL.

B6: C519 (antibody, V domains shown)
VH: QVQLQESGPGLVKPSETLSLTCAVSGGSISSYYWSWIRQPPGKGLEWIGYIDTSGSTNYNPSLKSRVTMSVDTSKNQFSLNVNSVTAADTAVYFCGVCAGDCYAASVFDYRGQGTLVTVSS
VL: DIQMTQSPSSLSASVGDRVTITCQASQDIIFYLNWYQQKPGKAPKLLIYDASNLKTGVPSRFSGSGSGTDFAFTISSLQPEDIATYYCQQYDNLPLTFGGGTKVEIK
For the molecule B6, the response was half-maximal at 1.07 ng/mL (EC50).

B7: C085 (antibody, V domains shown)
VH: QVQLQESGPGLVKPSETLSLTCTVSGDSMSSYFWTWIRQPPGKGLECIGYFYPSGSTNYNPSLKSRVTISIDTSKNQFSLKLSSVTAADTAVYYCARLKQQLVGFGWFDPWGQGTLVTVSS
VL: QSVLTQPPSVSGAPGQRVTISCTGSSSNIGADYDVHWYQQFPGTAPKVLIYANTNRPSGVPERFSGSKSGTSASLAITGLQAEDEADYYCQSYDHSLNWVFGGGTKLTVL
In the case of B7, the EC50 was determined as 2.38 ng/mL.

B8: C086 (antibody, V domains shown)
VH: QVQLQESGPGLVKPSETLSLTCTVSGDSISTYFWAWIRQPPGRGLECIGSFFPSGSTYYNPSLKSRVTISVDTSKNQFSLKLNSVTAADTAVYYCARLKQQLVGFGWFDPWGQGSLVTVSS
VL: QSVLTQPPSVSGAPGQRVTISCTGSISNIGADYEVHWYVQFPGTAPKVLIYANTNRPSGVPERFSASKSGTSASLAITGLQAEDEADYYCQSYDHRLHWVFGGGTKLTVL
In turn, B8 displayed an EC50 of 3.01 ng/mL.
